System: engineered chimeric receptor SEQ ID NO: 33 and its mutants (human α7-nAChR ligand binding domain / human GlyRα1 ion pore domain) in Lenti-X 293T cells
Experiment: YFP fluorescence quenching anion reporter plate reader assay (percent quench, EC50)
Type: cell-based
Settings: for YFP fluorescence quenching using CNL001 (percent quench): receptor named in row; for YFP fluorescence quenching using Varenicline, 3 nM var: ligand Varenicline 3 nM; for YFP fluorescence quenching using Varenicline, 30 nM var: ligand Varenicline 30 nM; for YFP fluorescence quenching using Varenicline, 300 nM var: ligand Varenicline 300 nM; for YFP fluorescence quenching using Varenicline, 500 nM var: ligand Varenicline 500 nM; for YFP fluorescence quenching using Varenicline, 1 uM var: ligand Varenicline 1 uM
Source text: To screen these mutant LGICs for those having novel response profiles to ligands, an anion reporter assay was developed to assess the function of the LGICs in a high throughput format. In this assay, cells expressing a YFP reporter whose fluorescence is quenched in the presence of anion are transfected with DNA encoding the channel of interest. Upon exposure to ligand, channels that are activated will flux anion, resulting in a dose-dependent quench of the YFP that can be detected on a plate reader. The greater the quench signal (i.e., the more positive the value), the higher the ligand activity on the receptor is.
Lenti-X 293T cells (LX293T, Clontech) were maintained in DMEM containing 10% FBS and 1% penicillin/streptomycin (Invitrogen). […] Two days before assay, cells were split at a density of 20,000 cells/well in a 96-well tissue culture plate coated with poly-d lysine (Thermo Scientific). The next day, the cells were transiently transfected with 0.1 μg of DNA per well using standard Fugene protocol (Promega). On the day of assay, cells were washed 2 times in 1X extracellular solution (1X ECS: 140 mM NaCl, 5 mM KCl, 1 mM MgCl2, 2 mM CaCl2, 10 mM HEPES, 10 mM glucose, pH 7.2, mOsms 300). After the last wash, 100 μL of 1X ECS was added to the wells and the plate was incubated at 37° C. for 30 min. While incubating the plate, the drugs were diluted to a 2X concentration in 1X ECS-Nal (same components as 1X ECS except the 140 mM NaCl was replaced by 140 mM Nal). The plates were then read on a Flexstation3 (Molecular Devices). Each well, 8 wells at a time, of the plate is read for 2 min using a Flexstation3 (Molecular Devices) as follows: 1) a baseline YFP fluorescence is read for 17 sec, 2) 100 μL of ligand is added, and 3) the changes in YFP fluorescence are then measured every 1.3 sec for 1 minute and 43 seconds. The percent quench is calculated from the average fluorescence of the last 10 seconds of the read divided by the baseline average of the first 15 seconds prior to the ligand addition.
FIGS. 1A-1J provide heat maps of the percent quench of YFP fluorescence following stimulation by various doses of either acetylcholine or the non-native ligand as indicated in the Figures. CODA71 (SEQ ID NO: 33) was used as a control, and CODA75 (SEQ ID NO: 29, a non-responding chimeric engineered receptor) was used as the negative control. Quenching of the fluorescence signal, as indicated by blue shaded cells, indicate the level of engineered receptor activation by the non-native ligand at that concentration.

B1: CODA236: engineered receptor: R101F in SEQ ID NO: 33 (protein)
chain: MRCSPGGVWLALAASLLHVSLQGEFQRKLYKELVKNYNPLERPVANDSQPLTVYFSLSLLQIMDVDEKNQVLTTNIWLQMSWTDHYLQWNVSEYPGVKTVFFPDGQIWKPDILLYNSADERFDATFHTNVLVNSSGHCQYLPPGIFKSSCPMDLKNFPMDVQTCKLKFGSWSYGGWSLDLQMQEADISGYIPNGEWDLVGIPGKRSERFYECCKEPYPDVTFTVTMRRRMGYYLIQMYIPSLLIVILSWISFWINMDAAPARVGLGITTVLTMTTQSSGSRASLPKVSYVKAIDIWMAVCLLFVFSALLEYAAVNFVSRQHKELLRFRRKRRHHKSPMLNLFQEDEAGEGRFNFSAYGMGPACLQAKDGISVKGANNSNTTNPPPAPSKSPEEMRKLFIQRAKKIDKISRIGFPMAFLIFNMFYWIIYKIVRREDVHNQ
modifications: synthetic sequence of chimeric LGIC
With B1 the “YFP fluorescence quenching using CNL001 (percent quench)” value (1 nM CNL001, first column so headed) was 9.048%, the “YFP fluorescence quenching using CNL001 (percent quench)” value (1 nM CNL001, second column so headed) was 26.601% and the “YFP fluorescence quenching using TC-5619/Bradanicline (percent quench)” value (3 nM brd (TC-5619/Bradanicline)) was 49.33%. The “YFP fluorescence quenching using CNL001 (percent quench)” value (10 nM CNL001, first column so headed) was 71.533%, the “YFP fluorescence quenching using CNL001 (percent quench)” value (10 nM CNL001, second column so headed) was 72.948% and the “YFP fluorescence quenching using TC-5619/Bradanicline (percent quench)” value (30 nM brd (TC-5619/Bradanicline)) was 77.38%. For the same molecule, the “YFP fluorescence quenching using CNL001 (percent quench)” value (50 nM CNL001, first column so headed) was 75.895%, the “YFP fluorescence quenching using CNL001 (percent quench)” value (50 nM CNL001, second column so headed) was 74.238% and the “YFP fluorescence quenching using ABT-126 (percent quench)” value (50 nM abt (ABT-126)) was −18.69%. For the same molecule, the “YFP fluorescence quenching using CNL001 (percent quench)” value (100 nM CNL001, first column so headed) was 76%, the “YFP fluorescence quenching using CNL001 (percent quench)” value (100 nM CNL001, second column so headed) was 75.861% and the “YFP fluorescence quenching (percent quench)” value (100 nM CNL002) was −9.56%. The “YFP fluorescence quenching using ABT-126 (percent quench)” value (100 nM abt (ABT-126)) was −23.01%, the “YFP fluorescence quenching using AZD-0328 (percent quench)” value (100 nM azd0328) was −9.78% and the “YFP fluorescence quenching using ABT-126 (percent quench)” value (300 nM abt (ABT-126)) was −20.92%. For the same molecule, the “YFP fluorescence quenching using AZD-0328 (percent quench)” value (300 nM azd0328) was 49.64%, the “YFP fluorescence quenching using TC-5619/Bradanicline (percent quench)” value (300 nM brd (TC-5619/Bradanicline)) was 77.51% and the “YFP fluorescence quenching using CNL001 (percent quench)” value (1 uM CNL001, first column so headed) was 76.367%. For the same molecule, the “YFP fluorescence quenching using CNL001 (percent quench)” value (1 uM CNL001, second column so headed) was 76.162%, the “YFP fluorescence quenching (percent quench)” value (1 uM CNL002) was 56.9% and the “YFP fluorescence quenching using ABT-126 (percent quench)” value (1 uM abt (ABT-126)) was 4.99%. The “YFP fluorescence quenching (percent quench)” value (10 uM ach (acetylcholine)) was −18.24%, the “YFP fluorescence quenching (percent quench)” value (30 uM CNL002) was 70.28% and the “YFP fluorescence quenching using AZD-0328 (percent quench)” value (30 uM azd0328) was 81.14%. For the same molecule, the “YFP fluorescence quenching (percent quench)” value (100 uM ach (acetylcholine)) was 60%, the “YFP fluorescence quenching (percent quench)” value (1 mM ach (acetylcholine)) was 66.07% and the “YFP fluorescence quenching (percent quench)” value (3 mM ach (acetylcholine)) was 71.38%. The “YFP fluorescence quenching using Facinicline, 30 nM fac” value (ligand Facinicline 30 nM) was −28.54, the “YFP fluorescence quenching using Facinicline, 300 nM fac” value (ligand Facinicline 300 nM) was 72.98 and the “YFP fluorescence quenching using Facinicline, 30 uM fac” value (ligand Facinicline 30 uM) was 87.6. For the same molecule, the “YFP fluorescence quenching using TC-6987, 1 uM tc6987” value (ligand TC-6987 1 uM) was 45.34, the “YFP fluorescence quenching using TC-6987, 10 uM tc6987” value (ligand TC-6987 10 uM) was 70.04 and the “YFP fluorescence quenching using TC-6987, 500 uM tc6987” value (ligand TC-6987 500 uM) was 75.86. The “YFP fluorescence quenching using Varenicline, 3 nM var” value (first column) was 19.949, the “YFP fluorescence quenching using Varenicline, 3 nM var” value (second column) was 22.334 and the “YFP fluorescence quenching using Varenicline, 30 nM var” value (first column) was 15.764. For the same molecule, the “YFP fluorescence quenching using Varenicline, 30 nM var” value (second column) was 16.213, the “YFP fluorescence quenching using Varenicline, 300 nM var” value (first column) was 23.135 and the “YFP fluorescence quenching using Varenicline, 300 nM var” value (second column) was 22.987. The “YFP fluorescence quenching using Varenicline, 500 nM var” value (first column) was 35.048, the “YFP fluorescence quenching using Varenicline, 500 nM var” value (second column) was 34.188 and the “YFP fluorescence quenching using Varenicline, 1 uM var” value (first column) was 71.031. For the same molecule, the “YFP fluorescence quenching using Varenicline, 1 uM var” value (second column) was 71.005.

Reference: patent US20250152742A1, “COMPOSITIONS AND METHODS FOR NEUROLOGICAL DISEASES” (Trames Bio, Inc., priority 2022, published 2025)
